For the assay, the target named is CD137 ligand (CD137L) (human) (UniProt P41273). Description: cell-based or functional assay.
UniProt P41273, sequence (P41273 whole entry): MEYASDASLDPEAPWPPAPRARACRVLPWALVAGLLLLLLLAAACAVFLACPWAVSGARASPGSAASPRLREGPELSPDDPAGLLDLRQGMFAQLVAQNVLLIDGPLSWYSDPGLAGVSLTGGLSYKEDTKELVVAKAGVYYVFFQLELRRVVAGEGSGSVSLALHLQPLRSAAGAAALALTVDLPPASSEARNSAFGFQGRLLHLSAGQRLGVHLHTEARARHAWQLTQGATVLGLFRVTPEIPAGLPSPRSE

As for “RBC-CD137-Fc (biotinylated CD137-Fc conjugated through avidin to biotinylated red blood cells) (from UniProt Q07011 24-186) (Fc fusion)”, the IL-8 production by monocytes co-cultured for 5 days (ELISA) was 2 fold.
